{
  "source": "IntAct's records for PubMed 31515488",
  "parents": {"B1": {"name": "Fanconi anemia group G protein (Homo sapiens), O15287 (parent)", "chain": "MSRQTTSVGSSCLDLWREKNDRLVRQAKVAQNSGLTLRRQQLAQDALEGLRGLLHSLQGLPAAVPVLPLELTVTCNFIILRASLAQGFTEDQAQDIQRSLERVLETQEQQGPRLEQGLRELWDSVLRASCLLPELLSALHRLVGLQAALWLSADRLGDLALLLETLNGSQSGASKDLLLLLKTWSPPAEELDAPLTLQDAQGLKDVLLTAFAYRQGLQELITGNPDKALSSLHEAASGLCPRPVLVQVYTALGSCHRKMGNPQRALLYLVAALKEGSAWGPPLLEASRLYQQLGDTTAELESLELLVEALNVPCSSKAPQFLIEVELLLPPPDLASPLHCGTQSQTKHILASRCLQTGRAGDAAEHYLDLLALLLDSSEPRFSPPPSPPGPCMPEVFLEAAVALIQAGRAQDALTLCEELLSRTSSLLPKMSRLWEDARKGTKELPYCPLWVSATHLLQGQAWVQLGAQKVAISEFSRCLELLFRATPEEKEQGAAFNCEQGCKSDAALQQLRAAALISRGLEWVASGQDTKALQDFLLSVQMCPGNRDTYFHLLQTLKRLDRRDEATALWWRLEAQTKGSHEDALWSLPLYLESYLSWIRPSDRDAFLEEFRTSLPKSCDL", "partner": "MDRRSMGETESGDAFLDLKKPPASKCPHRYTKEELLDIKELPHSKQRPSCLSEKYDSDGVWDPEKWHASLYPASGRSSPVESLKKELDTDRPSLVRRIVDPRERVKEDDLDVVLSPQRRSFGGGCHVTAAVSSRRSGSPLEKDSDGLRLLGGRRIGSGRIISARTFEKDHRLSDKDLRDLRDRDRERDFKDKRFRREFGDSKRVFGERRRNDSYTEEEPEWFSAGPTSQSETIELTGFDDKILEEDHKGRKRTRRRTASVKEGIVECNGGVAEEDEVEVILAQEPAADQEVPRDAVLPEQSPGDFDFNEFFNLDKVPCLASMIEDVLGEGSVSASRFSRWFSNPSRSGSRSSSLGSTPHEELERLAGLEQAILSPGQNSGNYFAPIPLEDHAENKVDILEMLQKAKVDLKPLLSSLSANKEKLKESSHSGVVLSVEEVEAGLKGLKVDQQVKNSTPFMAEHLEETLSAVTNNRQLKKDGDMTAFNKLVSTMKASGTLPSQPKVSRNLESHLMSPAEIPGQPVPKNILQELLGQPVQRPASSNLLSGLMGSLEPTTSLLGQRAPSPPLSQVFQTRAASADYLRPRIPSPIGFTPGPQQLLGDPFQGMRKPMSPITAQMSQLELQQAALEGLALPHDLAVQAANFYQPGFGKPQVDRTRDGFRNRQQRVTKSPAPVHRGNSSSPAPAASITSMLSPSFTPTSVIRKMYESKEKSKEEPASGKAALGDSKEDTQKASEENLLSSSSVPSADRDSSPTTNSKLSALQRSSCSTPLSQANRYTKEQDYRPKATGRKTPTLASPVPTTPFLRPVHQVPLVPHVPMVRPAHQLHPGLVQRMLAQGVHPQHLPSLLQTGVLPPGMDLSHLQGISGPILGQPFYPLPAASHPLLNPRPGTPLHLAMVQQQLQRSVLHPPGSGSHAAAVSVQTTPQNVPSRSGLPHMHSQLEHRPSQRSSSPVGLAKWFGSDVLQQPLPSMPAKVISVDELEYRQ"}, "B2": {"name": "Synaptonemal complex central element protein 3 (Homo sapiens), A1L190 (parent)", "chain": "MDDADPEERNYDNMLKMLSDLNKDLEKLLEEMEKISVQATWMAYDMVVMRTNPTLAESMRRLEDAFVNCKEEMEKNWQELLHETKQRL", "partner": "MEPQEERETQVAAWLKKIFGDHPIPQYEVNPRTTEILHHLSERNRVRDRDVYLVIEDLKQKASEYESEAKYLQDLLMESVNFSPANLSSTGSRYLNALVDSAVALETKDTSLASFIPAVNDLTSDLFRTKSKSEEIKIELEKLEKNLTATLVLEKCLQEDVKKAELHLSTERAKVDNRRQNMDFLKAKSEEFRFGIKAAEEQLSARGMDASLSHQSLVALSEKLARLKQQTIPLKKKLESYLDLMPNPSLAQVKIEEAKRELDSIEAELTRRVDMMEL"}, "B3": {"name": "Transcription factor 12 (Homo sapiens), Q99081 (parent)", "chain": "MNPQQQRMAAIGTDKELSDLLDFSAMFSPPVNSGKTRPTTLGSSQFSGSGIDERGGTTSWGTSGQPSPSYDSSRGFTDSPHYSDHLNDSRLGAHEGLSPTPFMNSNLMGKTSERGSFSLYSRDTGLPGCQSSLLRQDLGLGSPAQLSSSGKPGTAYYSFSATSSRRRPLHDSAALDPLQAKKVRKVPPGLPSSVYAPSPNSDDFNRESPSYPSPKPPTSMFASTFFMQDGTHNSSDLWSSSNGMSQPGFGGILGTSTSHMSQSSSYGNLHSHDRLSYPPHSVSPTDINTSLPPMSSFHRGSTSSSPYVAASHTPPINGSDSILGTRGNAAGSSQTGDALGKALASIYSPDHTSSSFPSNPSTPVGSPSPLTGTSQWPRPGGQAPSSPSYENSLHSLQSRMEDRLDRLDDAIHVLRNHAVGPSTSLPAGHSDIHSLLGPSHNAPIGSLNSNYGGSSLVASSRSASMVGTHREDSVSLNGNHSVLSSTVTTSSTDLNHKTQENYRGGLQSQSGTVVTTEIKTENKEKDENLHEPPSSDDMKSDDESSQKDIKVSSRGRTSSTNEDEDLNPEQKIEREKERRMANNARERLRVRDINEAFKELGRMCQLHLKSEKPQTKLLILHQAVAVILSLEQQVRERNLNPKAACLKRREEEKVSAVSAEPPTTLPGTHPGLSETTNPMGHM", "partner": "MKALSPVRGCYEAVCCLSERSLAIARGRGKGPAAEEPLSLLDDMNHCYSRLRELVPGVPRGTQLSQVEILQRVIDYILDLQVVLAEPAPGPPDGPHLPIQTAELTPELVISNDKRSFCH"}, "B4": {"name": "Zinc finger protein 655 (Homo sapiens), Q8N720 (parent)", "chain": "MEEIPAQEAAGSPRVQFQSLETQSECLSPEPQFVQDTDMEQGLTGDGETREENKLLIPKQKISEEVHSYKVRVGRLKHDITQVPETREVYKSEDRLERLQEILRKFLYLEREFRQITISKETFTSEKNNECHEPEKSFSLDSTIDADQRVLRIQNTDDNDKYDMSFNQNSASGKHEHLNLTEDFQSSECKESLMDLSHLNKWESIPNTEKSYKCDVCGKIFHQSSALTRHQRIHTREKPYKCKECEKSFSQSSSLSRHKRIHTREKPYKCEASDKSCEASDKSCSPSSGIIQHKKIHTRAKSYKCSSCERVFSRSVHLTQHQKIHKEMPCKCTVCGSDFCHTSYLLEHQRVHHEEKAYEYDEYGLAYIKQQGIHFREKPYTCSECGKDFRLNSHLIQHQRIHTGEKAHECNECGKAFSQTSCLIQHHKMHRKEKSYECNEYEGSFSHSSDLILQQEVLTRQKAFDCDVWEKNSSQRAHLVQHQSIHTKENS"}},
  "data": [
    {"variants_of": "B1", "conditions": "with 4et_human EIF4ENIF1, Q9NRA8", "values": [
      {"variant": "T297I", "effect of a mutation on the interaction": "with no effect"},
      {"variant": "S7F", "effect of a mutation on the interaction": "with no effect"}
    ]},
    {"variants_of": "B2", "conditions": "with haus1_human HAUS1, Q96CS2", "values": [
      {"variant": "MDDADPEERNYDNMLKMLSDLNKDLEKLLEEMEKISVQATWMAYDMVVMRTNPTLAESMRRLEDGFVNCKEEMEKNWQELLHETKQRL", "effect of a mutation on the interaction": "with no effect"},
      {"variant": "MDDADPEERNYDNMLKMLSDLNKDLEKLLEEMEKISVQATWMAYDMVVMCTNPTLAESMRRLEDAFVNCKEEMEKNWQELLHETKQRL", "effect of a mutation on the interaction": "with no effect"}
    ]},
    {"variants_of": "B3", "conditions": "with id3_human ID3, Q02535", "values": [
      {"variant": "A458V", "effect of a mutation on the interaction": "with no effect"},
      {"variant": "L483R", "effect of a mutation on the interaction": "with no effect"},
      {"variant": "D565V", "effect of a mutation on the interaction": "with no effect"},
      {"variant": "N479S", "effect of a mutation on the interaction": "with no effect"}
    ]},
    {"variants_of": "B4", "conditions": "with int13_human INTS13, Q9NVM9", "values": [
      {"variant": "MEEIPAQEAAGSPRVQFQSLETQSECLSPEPQFVQDTDMEQGLTGDGETREENKLLIPKQKISEEVHSYKVRVGRLKHDITQVPETREVYKSEDRLERLQEILRKFLYLEREFRQITISKETFTSEKNNECHEPEKSFSLDSTIDADQRVLRIQNTDDNDKYDMSFNQNSASGKHEHLNLTEDFQSSECKESLMDLSHLNKWESIPNTEKSYKCDVCGKIFHQSSALTRHQRIHTREKPYKCKECEKSFSQSSSLSRHKRIHTREKPYKCEASDKSCEASDKSCSPSSGIIQHKKIHTRAKSYKCSSCERVFSRSVHLTQHQKIHKEMPCKCTVCGSDFCHTSYLLEHQRVHHEEKAYEYDEYGLAYIKQQGIHFREKPYTCSECGKDFRLNSHLIQHQRIHTGEKAHECNECGKAFSQTSCLIQHHKMHRKEKSYECNEYEGSFSHSSDLILQQEVLTRQKAFDGDVWEKNSSQRAHLVQHQSIHTKENS", "note": "[C466G]", "effect of a mutation on the interaction": "with no effect"}
    ]}
  ]
}
